The labels stand for the following.
B1: CW6B130 (antibody, V domains shown)
VH: QLQLQESGPGLVKPSETLSLTCTVSGASISSINYYWGWIRQPPGKGLEWIGSFYYSGNTYYNPSLKSRVTISVDTSKNYFSLKLNSVTAADTAVYYCAREYYDSSGYYPFEPWGQGTLVTVSS
VL: SYVLTQPPSVSVAPGQTARITCGGDNIGSESVHWYQQKPGQAPVLVVYDDTDRPSGIPERFSGSKSGTTATLTISWVEAGDEADYYCQVWDSSSDHVVFGGGTKLTVL
B2: CW6B175 (antibody, V domains shown)
VH: EVQLVESGGGLVQPGGSLRLSCAASGFTFTNYWMTWVRQAPGKGLEWVANIKQSGSEKYYVDSVKGRFTISRDNAKNSLYLQMNSLRAEDTAVYYCARTLYEWELEPFDYWGQGTLVTVSS
VL: B1 VL with D25N, N26R, E30K, Y48F, T51S, K65N, T68I, W76R, S94N
B3: CW6B188 (antibody, V domains shown)
VH: B2 VH with S56N
VL: B1 VL with D25N, N26R, E30K, S31N, V32L, T51S, K65N, T68S, W76R, S94R
B4: CW6B238 (antibody, V domains shown)
VH: QVTLKESGPVLVKPTETLTLTCTVSGFSLNNARMGVSWIRQPPGKALEWLAHMFSSDEKFYRTSLKSRLTISKDTSKSQVVLTMTNMDPVDTATYYCARISLYSSGHDTFDLWGQGTMVTVSS
VL: AIQMTQSPSSLSASVGDRVTITCRASQDIRNTLGWYQQKPGKAPNLLIYAASSLQSGVPSRFSGSGSGTDFTLTISSLQPEDFATYYCLQDYDYPLTFGGGTKVEIK
B5: CW6B237 (antibody, V domains shown)
VH: B4 VH with N30S, M53I, S56H, R62S, S64F, T83M, S101I, Y103S, T109A, L112I
VL: B4 VL with N31H, T32N, T72I, Y86F, Y87F, D93I
B6: CW6B228 (antibody, V domains shown)
VH: QVQLQESGPGLVKPSETLSLTCTVSGNSIRSYYWSWIRQPAGKGLEWIGRIYISGNTNYNPSLKSRVTMSIDTSKNQFSLKLSSVTAADTAVYYCARLSGIDAFDIWGQGTMVTVSS
VL: DIQMTQSPSSLSASVGDRVTITCQASQDINNYLNWYQQKPGKAPKLLIYDASSLETGVPSRFSGSGSGTDFTFTISSLQPEDFATYYCQQYDDLPITFGQGTRLEIK
B7: CW6B230 (antibody, V domains shown)
VH: B6 VH with R30S, S31N, S54T, I71L
VL: B6 VL with S10T, I21F, N30T, N31K, S53N
B8: CW6B229 (antibody, V domains shown)
VH: B6 VH with Y93F
VL: B6 VL with N30S, S53N, D93N
B9: CW6B233 (antibody, V domains shown)
VH: B6 VH
VL: B6 VL with N30T, S53N, D93N

Where a chain is given by its changes, count along the chain named.

The target of the first assay is T1, HLA-Cw6/ADAMTSL5-Abu on rhHLA-Cw6 expressing cells loaded with ADAM-Abu peptide (human), P10321. As to the kind of experiment: cell-based or functional assay.
On to B1, for which the IL-2 % Inhibition (8.5 nM mAb), HLA-Cw6-00254 is 100% and the IL-2 % Inhibition (8.5 nM mAb), HLA-Cw6-00290 amounted to 100%.

Consider B2, for which the IL-2 % Inhibition (8.5 nM mAb), HLA-Cw6-00254 stood at 85% and the IL-2 % Inhibition (8.5 nM mAb), HLA-Cw6-00290 amounted to 96%.

Molecule B3 registered an IL-2 % Inhibition (8.5 nM mAb), HLA-Cw6-00254 of 9%.

The molecule B4 registered an IL-2 % Inhibition (8.5 nM mAb), HLA-Cw6-00290 of 86%.

The molecule B5 returned an IL-2 % Inhibition (8.5 nM mAb), HLA-Cw6-00290 of 59%.

The molecule B6 had an IL-2 % Inhibition (8.5 nM mAb), HLA-Cw6-00290 of 100%.

As to B7, the IL-2 % Inhibition (8.5 nM mAb), HLA-Cw6-00290 is 93%.

Take B8: the IL-2 % Inhibition (8.5 nM mAb), HLA-Cw6-00290 amounted to 86%.

As for B9, the IL-2 % Inhibition (8.5 nM mAb), HLA-Cw6-00290 turned out to be 91%.

The next assay has as its target T1, HLA-Cw6/ADAMTSL5-Abu on rhHLA-Cw6 ….
Assay: not given
Molecule B1 displayed an IC50 (read off the curve) of 0.03 µg/mL.

Molecule B2 came in with an IC50 (read off the curve) of 0.2 µg/mL.

Molecule B4 yielded an IC50 (read off the curve) of 0.2 µg/mL.

The molecule B7 showed an IC50 (read off the curve) of 0.2 µg/mL.

Turning to B8, the IC50 (read off the curve) is 0.2 µg/mL.

Consider B9, for which the IC50 (read off the curve) is 0.2 µg/mL.

These data come from patent US20200317791A1.
